Test results from IntAct's records for PubMed 39009827.

B1: Zinc finger protein GLIS2 (Homo sapiens), Q9BZE0 (parent)
chain: MHSLDEPLDLKLSITKLRAAREKRERTLGVVRPRALHRELGLVDDSPTPGSPGSPPSGFLLNSKFPEKVEGRFSAAPLVDLSLSPPSGLDSPNGSSSLSPERQGNGDLPPVPSASDFQPLRYLDGVPSSFQFFLPLGSGGALHLPASSFLTPPKDKCLSPDLPLPKQLVCRWAKCNQLFELLQDLVDHVNDYHVKPEKDAGYCCHWEGCARHGRGFNARYKMLIHIRTHTNEKPHRCPTCSKSFSRLENLKIHNRSHTGEKPYVCPYEGCNKRYSNSSDRFKHTRTHYVDKPYYCKMPGCHKRYTDPSSLRKHIKAHGHFVSHEQQELLQLRPPPKPPLPAPDGGPYVSGAQIIIPNPAALFGGPGLPGLPLPLAPGPLDLSALACGNGGGSGGGGGMGPGLPGPVLPLNLAKNPLLPSPFGAGGLGLPVVSLLAGAAGGKAEGEKGRGSVPTRALGMEGHKTPLERTESSCSRPSPDGLPLLPGTVLDLSTGVNSAASSPEALAPGWVVIPPGSVLLKPAVVN
B2: Tyrosine-protein phosphatase non-receptor type 22 (Homo sapiens), Q9Y2R2 (parent)
chain: MDQREILQKFLDEAQSKKITKEEFANEFLKLKRQSTKYKADKTYPTTVAEKPKNIKKNRYKDILPYDYSRVELSLITSDEDSSYINANFIKGVYGPKAYIATQGPLSTTLLDFWRMIWEYSVLIIVMACMEYEMGKKKCERYWAEPGEMQLEFGPFSVSCEAEKRKSDYIIRTLKVKFNSETRTIYQFHYKNWPDHDVPSSIDPILELIWDVRCYQEDDSVPICIHCSAGCGRTGVICAIDYTWMLLKDGIIPENFSVFSLIREMRTQRPSLVQTQEQYELVYNAVLELFKRQMDVIRDKHSGTESQAKHCIPEKNHTLQADSYSPNLPKSTTKAAKMMNQQRTKMEIKESSSFDFRTSEISAKEELVLHPAKSSTSFDFLELNYSFDKNADTTMKWQTKAFPIVGEPLQKHQSLDLGSLLFEGCSNSKPVNAAGRYFNSKVPITRTKSTPFELIQQRETKEVDSKENFSYLESQPHDSCFVEMQAQKVMHVSSAELNYSLPYDSKHQIRNASNVKHHDSSALGVYSYIPLVENPYFSSWPPSGTSSKMSLDLPEKQDGTVFPSSLLPTSSTSLFSYYNSHDSLSLNSPTNISSLLNQESAVLATAPRIDDEIPPPLPVRTPESFIVVEEAGEFSPNVPKSLSSAVKVKIGTSLEWGGTSEPKKFDDSVILRPSKSVKLRSPKSELHQDRSSPPPPLPERTLESFFLADEDCMQAQSIETYSTSYPDTMENSTSSKQTLKTPGKSFTRSKSLKILRNMKKSICNSCPPNKPAESVQSNNSSSFLNFGFANRFSKPKGPRNPPPTWNI
B3: ATP-binding cassette sub-family C member 6 (Homo sapiens), O95255 (parent)
chain: MAAPAEPCAGQGVWNQTEPEPAATSLLSLCFLRTAGVWVPPMYLWVLGPIYLLFIHHHGRGYLRMSPLFKAKMVLGFALIVLCTSSVAVALWKIQQGTPEAPEFLIHPTVWLTTMSFAVFLIHTERKKGVQSSGVLFGYWLLCFVLPATNAAQQASGAGFQSDPVRHLSTYLCLSLVVAQFVLSCLADQPPFFPEDPQQSNPCPETGAAFPSKATFWWVSGLVWRGYRRPLRPKDLWSLGRENSSEELVSRLEKEWMRNRSAARRHNKAIAFKRKGGSGMKAPETEPFLRQEGSQWRPLLKAIWQVFHSTFLLGTLSLIISDVFRFTVPKLLSLFLEFIGDPKPPAWKGYLLAVLMFLSACLQTLFEQQNMYRLKVLQMRLRSAITGLVYRKVLALSSGSRKASAVGDVVNLVSVDVQRLTESVLYLNGLWLPLVWIVVCFVYLWQLLGPSALTAIAVFLSLLPLNFFISKKRNHHQEEQMRQKDSRARLTSSILRNSKTIKFHGWEGAFLDRVLGIRGQELGALRTSGLLFSVSLVSFQVSTFLVALVVFAVHTLVAENAMNAEKAFVTLTVLNILNKAQAFLPFSIHSLVQARVSFDRLVTFLCLEEVDPGVVDSSSSGSAAGKDCITIHSATFAWSQESPPCLHRINLTVPQGCLLAVVGPVGAGKSSLLSALLGELSKVEGFVSIEGAVAYVPQEAWVQNTSVVENVCFGQELDPPWLERVLEACALQPDVDSFPEGIHTSIGEQGMNLSGGQKQRLSLARAVYRKAAVYLLDDPLAALDAHVGQHVFNQVIGPGGLLQGTTRILVTHALHILPQADWIIVLANGAIAEMGSYQELLQRKGALMCLLDQARQPGDRGEGETEPGTSTKDPRGTSAGRRPELRRERSIKSVPEKDRTTSEAQTEVPLDDPDRAGWPAGKDSIQYGRVKATVHLAYLRAVGTPLCLYALFLFLCQQVASFCRGYWLSLWADDPAVGGQQTQAALRGGIFGLLGCLQAIGLFASMAAVLLGGARASRLLFQRLLWDVVRSPISFFERTPIGHLLNRFSKETDTVDVDIPDKLRSLLMYAFGLLEVSLVVAVATPLATVAILPLFLLYAGFQSLYVVSSCQLRRLESASYSSVCSHMAETFQGSTVVRAFRTQAPFVAQNNARVDESQRISFPRLVADRWLAANVELLGNGLVFAAATCAVLSKAHLSAGLVGFSVSAALQVTQTLQWVVRNWTDLENSIVSVERMQDYAWTPKEAPWRLPTCAAQPPWPQGGQIEFRDFGLRYRPELPLAVQGVSFKIHAGEKVGIVGRTGAGKSSLASGLLRLQEAAEGGIWIDGVPIAHVGLHTLRSRISIIPQDPILFPGSLRMNLDLLQEHSDEAIWAALETVQLKALVASLPGQLQYKCADRGEDLSVGQKQLLCLARALLRKTQILILDEATAAVDPGTELQMQAMLGSWFAQCTVLLIAHRLRSVMDCARVLVMDKGQVAESGSPAQLLAQKGLFYRLAQESGLV

Variants of: B1
Settings: with ptbp1_human PTBP1, P26599
Sequence of ptbp1_human PTBP1, P26599 (P26599 whole entry): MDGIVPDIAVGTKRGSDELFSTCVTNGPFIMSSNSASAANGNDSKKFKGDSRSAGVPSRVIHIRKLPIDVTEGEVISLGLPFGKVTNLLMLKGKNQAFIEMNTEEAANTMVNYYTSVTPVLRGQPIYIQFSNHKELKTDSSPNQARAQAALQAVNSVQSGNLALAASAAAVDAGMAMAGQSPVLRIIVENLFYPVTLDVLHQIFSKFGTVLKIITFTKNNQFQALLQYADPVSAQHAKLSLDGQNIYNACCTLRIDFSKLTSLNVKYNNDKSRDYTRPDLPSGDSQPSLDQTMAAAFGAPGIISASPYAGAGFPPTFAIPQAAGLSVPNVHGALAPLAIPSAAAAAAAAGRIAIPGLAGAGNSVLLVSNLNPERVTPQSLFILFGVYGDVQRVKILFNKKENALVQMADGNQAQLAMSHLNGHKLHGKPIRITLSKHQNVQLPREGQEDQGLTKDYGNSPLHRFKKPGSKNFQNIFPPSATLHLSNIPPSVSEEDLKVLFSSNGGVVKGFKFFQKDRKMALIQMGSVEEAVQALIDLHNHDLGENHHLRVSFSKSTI

Variant	effect of a mutation on the interaction
P420L	decreasing interaction strength

Variants of: B2
Settings: with itsn1_human ITSN1, Q15811
Sequence of itsn1_human ITSN1, Q15811 (Q15811 whole entry): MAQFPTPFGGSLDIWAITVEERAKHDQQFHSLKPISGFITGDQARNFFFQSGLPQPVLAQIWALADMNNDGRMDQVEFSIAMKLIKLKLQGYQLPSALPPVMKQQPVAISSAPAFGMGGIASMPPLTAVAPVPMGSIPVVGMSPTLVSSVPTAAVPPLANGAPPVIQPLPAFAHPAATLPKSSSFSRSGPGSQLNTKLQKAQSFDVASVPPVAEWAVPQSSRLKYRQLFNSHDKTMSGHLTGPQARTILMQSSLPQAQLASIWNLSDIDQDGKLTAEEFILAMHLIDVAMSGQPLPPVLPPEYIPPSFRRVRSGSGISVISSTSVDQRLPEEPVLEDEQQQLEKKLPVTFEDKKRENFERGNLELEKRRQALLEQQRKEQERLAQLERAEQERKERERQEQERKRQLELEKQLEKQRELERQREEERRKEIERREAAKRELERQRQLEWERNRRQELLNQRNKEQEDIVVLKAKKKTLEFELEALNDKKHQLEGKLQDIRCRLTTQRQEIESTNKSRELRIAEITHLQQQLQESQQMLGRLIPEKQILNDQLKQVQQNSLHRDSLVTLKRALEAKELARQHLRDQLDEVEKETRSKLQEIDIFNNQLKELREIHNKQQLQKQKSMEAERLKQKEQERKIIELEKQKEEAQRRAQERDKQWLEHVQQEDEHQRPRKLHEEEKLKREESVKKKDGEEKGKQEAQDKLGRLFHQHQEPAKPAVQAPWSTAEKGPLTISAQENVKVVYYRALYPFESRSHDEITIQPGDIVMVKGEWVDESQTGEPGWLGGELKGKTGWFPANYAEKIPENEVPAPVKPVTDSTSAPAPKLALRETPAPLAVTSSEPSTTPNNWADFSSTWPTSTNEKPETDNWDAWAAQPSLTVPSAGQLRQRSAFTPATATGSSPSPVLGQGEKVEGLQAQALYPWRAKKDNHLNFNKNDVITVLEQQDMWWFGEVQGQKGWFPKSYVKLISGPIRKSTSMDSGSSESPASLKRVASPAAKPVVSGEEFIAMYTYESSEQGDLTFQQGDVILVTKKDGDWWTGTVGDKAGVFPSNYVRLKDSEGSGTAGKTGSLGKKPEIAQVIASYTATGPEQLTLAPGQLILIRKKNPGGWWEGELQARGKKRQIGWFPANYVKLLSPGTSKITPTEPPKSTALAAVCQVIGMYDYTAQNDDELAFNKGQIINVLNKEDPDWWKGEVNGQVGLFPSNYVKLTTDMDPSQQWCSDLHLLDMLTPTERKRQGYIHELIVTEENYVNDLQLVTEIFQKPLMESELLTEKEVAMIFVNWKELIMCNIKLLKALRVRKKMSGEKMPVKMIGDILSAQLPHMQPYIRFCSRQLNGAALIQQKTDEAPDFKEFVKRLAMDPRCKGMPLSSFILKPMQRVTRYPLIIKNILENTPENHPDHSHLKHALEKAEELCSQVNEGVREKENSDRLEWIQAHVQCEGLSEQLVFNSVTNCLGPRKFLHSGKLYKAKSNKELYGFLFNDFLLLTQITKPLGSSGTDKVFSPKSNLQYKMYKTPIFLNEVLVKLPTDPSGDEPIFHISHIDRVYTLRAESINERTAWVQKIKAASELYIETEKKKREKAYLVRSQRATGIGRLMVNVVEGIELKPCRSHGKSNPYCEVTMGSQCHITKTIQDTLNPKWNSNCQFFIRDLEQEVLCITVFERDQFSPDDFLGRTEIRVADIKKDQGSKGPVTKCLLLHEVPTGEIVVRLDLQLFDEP

Variant	effect of a mutation on the interaction
R620W	decreasing interaction strength

Variants of: B3
Settings: with mlp3b_human MAP1LC3B

Variant	effect of a mutation on the interaction
L1226I	decreasing interaction strength

Variants of: B3
Settings: with mlp3a_human MAP1LC3A

Variant	effect of a mutation on the interaction
L1226I	decreasing interaction strength
